# Assay results reported in patent publication US20110182887A1 (AstraZeneca / MedImmune, published 2011).
# Positions count from the first letter of the chain named.
# B1: HB227RHC heavy chain + chimeric HB22.7 light chain (chL) (antibody, human IgG1, V domains shown)
# VH: QVQLQESGPALVKPTQTLTLTCTFSGFSLSDYGVNWIRQPPGKALEWLGIIWGDGRTDYNSALKSRLSISKDNSKNQVVLRMTNVDPVDTATYFCARAPGNRAMEYWGQGTVVTVSS
# VL: SIVMTQTPKFLLVSAGDRITLTCKASQSVTNDVAWYQQKPGQSPKLLIYYASNRYTGVPDRFTGSGYGTDFTFTISTVQAEDLAVYFCQQDYRSPWTFGGGTKLEI
# notes: Human IgG1 kappa, COS-7 supernatant; The VH entry may include the leader; also called RHC+chL
# B2: parental mouse monoclonal anti-CD22 antibody HB22.7 (antibody, V domains shown)
# VH: QVQLKESGPGLVAPSQSLSITCTVSGFSLSDYGVNWVRQIPGKGLEWLGIIWGDGRTDYNSALKSRLNISKDNSKSQVFLKMNSLKADDTARYYCARAPGNRAMEYWGQGTSVTVS
# VL: B1 VL
# notes: Mouse antibody from hybridoma ATCC HB11347; It was labelled with Alexa-fluor in some cell assays; also called mouse HB22.7; murine HB22.7
# B3: HB227RHB heavy chain + chimeric HB22.7 light chain (chL) (antibody, human IgG1, V domains shown)
# VH: B1 VH with G49A, N73T
# VL: B1 VL
# notes: Human IgG1 kappa, COS-7 supernatant; The VH entry may include the leader; also called RHB+chL
# B4: HB227RHOv2ABCD + HB227RKC humanized antibody (antibody, human IgG1, V domains shown)
# VH: QVQLEESGGGVVRPGRSLRLSCAASGFTFDDYGVNWIRQAPGKGLEWVTIIWGDGRTDYNSALKSRFTVSRNNSNNTLSLQMNSLTTEDTAVYYCVRAPGNRAMEYWGQGVLVTVS
# VL: DIVMTQSPSSLSASVGDRVTITCKASQSVTNDVAWYQQKPGKAPKLLIYYASNRYTGVPDRFSGSGYGTDFTLTISSLQPEDFATYFCQQDYRSPWTFGGGTKVEIKR
# notes: No VH back mutations; Human IgG1 kappa, COS-7 supernatant; also called RHOv2ABCD+RKC
# Legend:
# [1] = biological target: T1, human CD22 (hCD22) expressed on the cell surface (human, UniProt P20273 20-847); assay: BHK-CD22 cell ELISA, COS-7 supernatant
# T1 construct: whole, on cells; One molecule is used for all cell-surface formats; also called human CD22 antigen; BHK-CD22
# [2] = biological target: T1, human CD22 (hCD22) expressed on the …; assay: flow cytometry on CHO cells transfected with human CD22, labelled secondary antibody, median fluorescence intensity
# Experimental: CHO cells expressing hCD22 were prepared by transfection with a plasmid encoding human CD22 using the Lipofectamine procedure. […] Cells were incubated on ice for 20 minutes then washed and resuspended in PBS followed by addition of secondary antibody, either a goat anti-human (GAH) or GAM-F(ab)′2 anti human-RPE at a 1:1000 dilution. Cells were incubated on ice for an additional 10 minutes and binding activity was evaluated via FACS analysis on a Guava flow cytometer.
# [3] = biological target: hCD22 (ligand immobilised on the BIAcore CM5 sensor chip) (human, UniProt P20273 20-687, limits assumed); assay: SPR (BIAcore 3000), hCD22 immobilised on CM5 chip, IgG injected, 1:1 model
# Experimental: Binding affinity of HB22.7 and RHOv2ACD/RKA were determined on a BIAcore 3000 instrument (BIAcore, Inc., Uppsala, Sweden). The ligand, hCD22, was prepared at 50 nM in 10 mM NaOAc, pH4 buffer. It was injected onto an EDC/NHS-activated CM5 sensor chip (BIAcore, Inc. Uppsala, Sweden) using a standard immobilization protocol. Following this, any unreacted active ester moieties were quenched using 1M Et-NH2 (ethanolamine; coupling reagents purchased from BIAcore, Inc.). A total of 535 and 689 RUs hCD22 remained bound to two sensor chip surfaces used in these experiments. Separately, a blank surface was prepared on each sensor chip using the identical protocol (minus protein). The blank surfaces were used as a reference cell in the experiments, and served to correct for both non-specific binding and some housekeeping artifacts.
# For the kinetic experiments, HB22.7 and RHOv2ACD/RKA were prepared as two dilution series, starting at 22 nM and 100 nM, then diluted three- and two-fold, respectively, down to final concentrations of 0.03 nM and 0.39 nM in HBS-EP buffer (BIAcore, Inc., consisting of the following: 10 mM HEPES buffer, pH7.4, 150 mM NaCl, 3 mM EDTA, and 0.005% P20). Each concentration of IgG was then injected over both the CD22 and reference cell surfaces, which are connected in series. Between injections, surfaces were regenerated with a 1-minute injection of 3M MgCl2.
# [4] = biological target: T1, human CD22 (hCD22) expressed on the …; assay: cell ELISA on BHK cells expressing human CD22, goat anti-mouse Ig-HRP, OD 450 nm
# Source text: The BHK-CD22 binding assay was used to test the binding activity of the chHB227 antibody in the transiently transformed COS 7 culture supernatants. A goat anti-human Ig-HRP conjugate (Sigma Chemicals) was used to detect binding of chHB22.7 mAb while a goat anti-mouse Ig-HRP conjugate (Southern Biotechnology) was used to detect binding of the parental mouse HB22.7 mAb. The bound HRP conjugates were exposed to the substrate o-phenyldiamine (OPD) and the resulting products detected at 450 nm.
# [5] = biological target: T1, human CD22 (hCD22) expressed on the …; assay: competitive cell ELISA on CD22; increasing mouse HB22.7 mixed with 250 ng/ml chHB227 (competitor); mouse HB22.7 titrated against 250 ng/ml chimeric antibody
# Experimental: To confirm the binding effectiveness of the RHF+RKC humanized antibody, a competitive ELISA was performed with increasing amounts of the mouse HB22.7 antibody mixed with 250 ng/ml of chimeric or humanized antibody.
# [6] = biological target: T1, human CD22 (hCD22) expressed on the …; assay: cell ELISA on BHK cells expressing human CD22, COS-7 supernatant, OD 655 nm
# [7] = biological target: T1, human CD22 (hCD22) expressed on the …; assay: cell ELISA on BHK cells expressing human CD22, OD 655 nm
binder,measurement,setting,value
B1,fold better binding than HB227RHB with the same chimeric light chain,[1],~2 fold
B2,EC50 (read off the curve),[2],~0.2 ug mAb per 10e6 cells
same,Kd,[3],14 nM
same,koff,[3],0.00017 s⁻¹
same,kon,[3],12000 M⁻¹ s⁻¹
same,EC50 (read off the curve),[4],~0.09 µg/mL
same,IC50,[5],~4 µg/mL
B3,binding result,[6],binds
B4,binding result,[7],binds
